Measured values from patent US20260242419A1, “A CYCLIC PEPTIDE FOR TRAPPING INTERLEUKIN-1 BETA” (Merck Sharp & Dohme LLC, priority 2023, published 2026).
Starred links: 1 amine or outer side, 2 acyl side, 3 side chain; linkers in the order of their positions; H or OH if unused. Non-standard residues stand in square brackets, D forms with d. orbOHorPhe4COOH = 4-[(1R,2S)-2-amino-2-carboxy-1-hydroxy-ethyl]benzoic acid, O=C([C@@H](N[*:1])[C@H](O)c1ccc(C(=O)[*:3])cc1)[*:2]; Phe4PyrimOMe = (S)-2-amino-3-(4-(2-methoxypyrimidin-5-yl)phenyl)propanoic acid, COc1ncc(-c2ccc(C[C@H](N[*:1])C(=O)[*:2])cc2)cn1; Phe4ImMe = (S)-2-amino-3-(4-(1-methyl-1H-imidazol-4-yl)phenyl)propanoic acid, Cn1cnc(-c2ccc(C[C@H](N[*:1])C(=O)[*:2])cc2)c1; Phe42ImMe = (S)-2-amino-3-(4-(1-methyl-1H-imidazol-2-yl)phenyl)propanoic acid, Cn1ccnc1-c1ccc(C[C@H](N[*:1])C(=O)[*:2])cc1; AlaPyrim4CONH2 = (2S)-2-amino-3-(2-carbamoylpyrimidin-5-yl)propanoic acid, NC(=O)c1ncc(C[C@H](N[*:1])C(=O)[*:2])cn1; SbOH4Pal = (2S,3S)-2-amino-3-hydroxy-3-(4-pyridyl)propanoic acid, O=C([C@@H](N[*:1])[C@@H](O[*:3])c1ccncc1)[*:2]; sbOH4Pal = (2S,3S)-2-amino-3-hydroxy-3-(4-pyridyl)propanoic acid, O=C([C@@H](N[*:1])[C@@H](O[*:3])c1ccncc1)[*:2]; Phe4Pyrim = (S)-2-amino-3-(4-(pyrimidin-5-yl)phenyl)propanoic acid, O=C([C@H](Cc1ccc(-c2cncnc2)cc1)N[*:1])[*:2]; RbOH4Pal = (2S,3R)-2-amino-3-hydroxy-3-(4-pyridyl)propanoic acid, O=C([C@@H](N[*:1])[C@H](O[*:3])c1ccncc1)[*:2]; AlaPiperazAc = (S)-3-(4-acetylpiperazin-1-yl)-2-aminopropanoic acid, CC(=O)N1CCN(C[C@H](N[*:1])C(=O)[*:2])CC1; daMeSMe = (2R)-2-amino-3-methoxy-2-methyl-propanoic acid, COC[C@@](C)(N[*:1])C(=O)[*:2]; ThrOMe = (2S,3R)-2-amino-3-methoxy-butanoic acid, CO[C@H](C)[C@H](N[*:1])C(=O)[*:2]; Ala(2-carboxypyrimidin-5-yl) = N[C@@H](Cc1cnc(C(=O)O)nc1)C(=O)O; dPro(4R-(4-pyridylmethyl)) = O=C(O)[C@H]1C[C@@H](Cc2ccncc2)CN1; Trp(βS-Me,4-F) = C[C@@H](c1c[nH]c2cccc(F)c12)[C@H](N)C(=O)O; Bip(4'-COOH) = N[C@@H](Cc1ccc(-c2ccc(C(=O)O)cc2)cc1)C(=O)O; Phe(4-(4-pyridyl)) = N[C@@H](Cc1ccc(-c2ccncc2)cc1)C(=O)O; dPro(4R-Bzl(4-F)) = O=C(O)[C@H]1C[C@@H](Cc2ccc(F)cc2)CN1; dPro(3S-(4-F-Bn)) = O=C(O)[C@@H]1NCC[C@@H]1Cc1ccc(F)cc1; Ala(pyrimidin-5-yl) = N[C@@H](Cc1cncnc1)C(=O)O; Phe(4-COOH) = N[C@@H](Cc1ccc(C(=O)O)cc1)C(=O)O; Bip = N[C@@H](Cc1ccc(-c2ccccc2)cc1)C(=O)O; Pro(cis-4-F) = O=C(O)[C@@H]1C[C@H](F)CN1; Met(O2) = CS(=O)(=O)CC[C@H](N)C(=O)O; d(αMeF) = C[C@@](N)(Cc1ccccc1)C(=O)O; Dap(CONH2) = NC(=O)NC[C@H](N)C(=O)O; hTyr = N[C@@H](CCc1ccc(O)cc1)C(=O)O; cisHyp = O=C(O)[C@@H]1C[C@H](O)CN1; d(αMeD) = C[C@@](N)(CC(=O)O)C(=O)O; 4Pal = N[C@@H](Cc1ccncc1)C(=O)O; aThr = C[C@H](O)[C@H](N)C(=O)O; NMeDab = CN[C@@H](CCN)C(=O)O; Dab = NCC[C@H](N)C(=O)O; Aib = CC(C)(N)C(=O)O

Molecular target: Recombinant human IL-1β (BioLegend 579404) (human, UniProt P01584 117-269)
Assay: cell-based or functional assay

| Binder | MRC5 IC50 |
| --- | --- |
| cyclo([Bip(4'-COOH)][4Pal][Phe(4-COOH)]G[Pro(cis-4-F)][Trp(βS-Me,4-F)][Aib]SW[d(αMeF)]DQ[Dab]G[dPro(4R-(4-pyridylmethyl))]) (ring closure inferred) [SEQ ID NO 259] | 0.014 nM |
| cyclo([Bip(4'-COOH)][4Pal][Phe(4-COOH)]G[Pro(cis-4-F)][Trp(βS-Me,4-F)][Aib]SW[Aib][AlaPyrim4CONH2]Q[Dab]G[dPro(4R-(4-pyridylmethyl))]) (ring closure inferred) [SEQ ID NO 267] | 0.014 nM |
| cyclo([Bip(4'-COOH)][4Pal][Phe(4-COOH)]G[Pro(cis-4-F)][Trp(βS-Me,4-F)][Aib]SW[daMeSMe][Ala(pyrimidin-5-yl)]Q[Dab]G[dPro(4R-(4-pyridylmethyl))]) (ring closure inferred) [SEQ ID NO 260] | 0.013 nM |
| cyclo([Bip(4'-COOH)][4Pal][Phe(4-COOH)]G[Pro(cis-4-F)][Trp(βS-Me,4-F)][Aib]SW[Aib][RbOH4Pal]Q[Dab]G[dPro(4R-Bzl(4-F))]) (ring closure inferred) [SEQ ID NO 273] | 0.013 nM |
| cyclo([Bip(4'-COOH)][4Pal][Phe(4-COOH)]G[Pro(cis-4-F)][Trp(βS-Me,4-F)][Aib]SW[Aib][Met(O2)]Q[Dab]G[dPro(4R-(4-pyridylmethyl))]) (ring closure inferred) [SEQ ID NO 266] | 0.019 nM |
| cyclo([Bip(4'-COOH)][4Pal][Phe(4-COOH)]G[Pro(cis-4-F)][Trp(βS-Me,4-F)][Aib]SW[d(αMeF)][aThr]Q[Dab]G[dPro(4R-(4-pyridylmethyl))]) (ring closure inferred) [SEQ ID NO 257] | 0.021 nM |
| cyclo([Bip(4'-COOH)][4Pal][Phe(4-COOH)]G[Pro(cis-4-F)][Trp(βS-Me,4-F)][Aib]SW[Aib][Ala(2-carboxypyrimidin-5-yl)]Q[Dab]G[dPro(4R-(4-pyridylmethyl))]) (ring closure inferred) [SEQ ID NO 268] | 0.014 nM |
| cyclo([Bip(4'-COOH)][4Pal][Phe(4-COOH)]G[Pro(cis-4-F)][Trp(βS-Me,4-F)][Aib]SW[Aib][SbOH4Pal]Q[Dab]G[dPro(4R-Bzl(4-F))]) (ring closure inferred) [SEQ ID NO 272] | 0.018 nM |
| cyclo([Bip(4'-COOH)][4Pal][orbOHorPhe4COOH]G[Pro(cis-4-F)][Trp(βS-Me,4-F)][Aib]SW[Aib][Ala(pyrimidin-5-yl)]Q[Dab]G[dPro(4R-Bzl(4-F))]) (ring closure inferred) [SEQ ID NO 275] | 0.018 nM |
| cyclo([Bip(4'-COOH)][4Pal][Phe(4-COOH)]G[Pro(cis-4-F)][Trp(βS-Me,4-F)][Aib]SW[d(αMeD)][hTyr]Q[Dab]G[dPro(4R-(4-pyridylmethyl))]) (ring closure inferred) [SEQ ID NO 256] | 0.012 nM |
| cyclo([Bip(4'-COOH)][4Pal][Phe(4-COOH)]G[Pro(cis-4-F)][Trp(βS-Me,4-F)][Aib]SW[d(αMeD)][ThrOMe]Q[Dab]G[dPro(4R-(4-pyridylmethyl))]) (ring closure inferred) [SEQ ID NO 255] | 0.011 nM |
| cyclo(Y[4Pal][Phe(4-COOH)]G[Pro(cis-4-F)][Trp(βS-Me,4-F)][Aib]SW[d(αMeD)][Ala(pyrimidin-5-yl)]Q[Dab]G[dPro(3S-(4-F-Bn))]) (ring closure inferred) [SEQ ID NO 278] | 0.021 nM |

Continued, values first:

| MRC5 IC50 | Binder |
| --- | --- |
| 0.023 nM | cyclo([Phe4F][4Pal][Phe(4-COOH)]G[Pro(cis-4-F)][Trp(βS-Me,4-F)][Aib]SW[d(αMeD)][Ala(pyrimidin-5-yl)]Q[Dab]G[dPro(3S-(4-F-Bn))]) (ring closure inferred) [SEQ ID NO 277] |
| 0.017 nM | cyclo([Bip][4Pal][Phe(4-COOH)]G[cisHyp][Trp(βS-Me,4-F)][Aib]SW[d(αMeD)][Ala(pyrimidin-5-yl)]Q[Dab]G[dPro(4R-(4-pyridylmethyl))]) (ring closure inferred) [SEQ ID NO 264] |
| 0.023 nM | cyclo([Bip(4'-COOH)][4Pal][Phe(4-COOH)]G[Pro(cis-4-F)][Trp(βS-Me,4-F)][Aib]EW[Aib][AlaPiperazAc]QSG[dPro(4R-Bzl(4-F))]) (ring closure inferred) [SEQ ID NO 271] |
| 0.016 nM | cyclo([Phe42ImMe][4Pal][Phe(4-COOH)]G[Pro(cis-4-F)][Trp(βS-Me,4-F)][Aib]SW[d(αMeD)][Ala(pyrimidin-5-yl)]Q[Dab]G[dPro(3S-(4-F-Bn))]) (ring closure inferred) [SEQ ID NO 280] |
| 0.017 nM | cyclo([Bip(4'-COOH)][4Pal][Phe(4-COOH)]G[Pro(cis-4-F)][Trp(βS-Me,4-F)][Aib]SW[d(αMeD)][sbOH4Pal]Q[Dab]G[dPro(3S-(4-F-Bn))]) (ring closure inferred) [SEQ ID NO 263] |
| 0.014 nM | cyclo([Bip][4Pal][Phe(4-COOH)]G[Pro(cis-4-F)][Trp(βS-Me,4-F)][Aib]SW[Aib][Ala(2-carboxypyrimidin-5-yl)]Q[Dab]G[dPro(4R-(4-pyridylmethyl))]) (ring closure inferred) [SEQ ID NO 269] |
| 0.014 nM | cyclo([Phe4Pyrim][4Pal][Phe(4-COOH)]G[Pro(cis-4-F)][Trp(βS-Me,4-F)][Aib]SW[d(αMeD)][Ala(pyrimidin-5-yl)]Q[Dab]G[dPro(3S-(4-F-Bn))]) (ring closure inferred) [SEQ ID NO 282] |
| 0.017 nM | cyclo([Bip(4'-COOH)][4Pal][Phe(4-COOH)]G[Pro(cis-4-F)][Trp(βS-Me,4-F)][Aib]SW[daMeSMe][aThr]Q[Dab]G[dPro(4R-(4-pyridylmethyl))]) (ring closure inferred) [SEQ ID NO 261] |
| 0.017 nM | cyclo([Bip(4'-COOH)][4Pal][Phe(4-COOH)]G[Pro(cis-4-F)][Trp(βS-Me,4-F)][Aib]EW[Aib]HQ[Dab]G[dPro(4R-Bzl(4-F))]) (ring closure inferred) [SEQ ID NO 276] |
| 0.026 nM | cyclo([Bip(4'-COOH)][RbOH4Pal][Phe(4-COOH)]G[Pro(cis-4-F)][Trp(βS-Me,4-F)][Aib]SW[Aib][Ala(pyrimidin-5-yl)]Q[Dab]G[dPro(4R-Bzl(4-F))]) (ring closure inferred) [SEQ ID NO 274] |
| 0.02 nM | cyclo([Bip(4'-COOH)][4Pal][Phe(4-COOH)]G[Pro(cis-4-F)][Trp(βS-Me,4-F)][Aib]SW[d(αMeF)]EQ[Dab]G[dPro(4R-(4-pyridylmethyl))]) (ring closure inferred) [SEQ ID NO 258] |
| 0.013 nM | cyclo([Phe4ImMe][4Pal][Phe(4-COOH)]G[Pro(cis-4-F)][Trp(βS-Me,4-F)][Aib]SW[d(αMeD)][Ala(pyrimidin-5-yl)]Q[Dab]G[dPro(3S-(4-F-Bn))]) (ring closure inferred) [SEQ ID NO 279] |
| 0.016 nM | cyclo([Phe(4-(4-pyridyl))][4Pal][Phe(4-COOH)]G[Pro(cis-4-F)][Trp(βS-Me,4-F)][Aib]SW[d(αMeD)][Ala(pyrimidin-5-yl)]Q[Dab]G[dPro(3S-(4-F-Bn))]) (ring closure inferred) [SEQ ID NO 283] |
| 0.023 nM | cyclo([Bip(4'-COOH)][4Pal][Phe(4-COOH)]G[Pro(cis-4-F)][Trp(βS-Me,4-F)][Aib]SW[Aib][Ala(pyrimidin-5-yl)]Q[Dap(CONH2)]G[dPro(4R-(4-pyridylmethyl))]) (ring closure inferred) [SEQ ID NO 270] |
| 0.022 nM | cyclo([Bip][4Pal][Phe(4-COOH)]G[Pro(cis-4-F)][Trp(βS-Me,4-F)][Aib]SW[Aib][dD]Q[Dab]G[dPro(4R-(4-pyridylmethyl))]) (ring closure inferred) [SEQ ID NO 265] |
| 0.02 nM | cyclo([Bip(4'-COOH)][4Pal][Phe(4-COOH)]G[Pro(cis-4-F)][Trp(βS-Me,4-F)][Aib]SW[Aib][Ala(pyrimidin-5-yl)]Q[NMeDab]G[dPro(4R-(4-pyridylmethyl))]) (ring closure inferred) [SEQ ID NO 262] |
| 0.012 nM | cyclo([Phe4PyrimOMe][4Pal][Phe(4-COOH)]G[Pro(cis-4-F)][Trp(βS-Me,4-F)][Aib]SW[d(αMeD)][Ala(pyrimidin-5-yl)]Q[Dab]G[dPro(3S-(4-F-Bn))]) (ring closure inferred) [SEQ ID NO 281] |
